{
  "source": "paper PMC11551746",
  "about": "“The Swi5–Sfr1 complex regulates Dmc1- and Rad51-driven DNA strand exchange proceeding through two distinct three-stranded intermediates by different mechanisms” (Nucleic Acids Research, 2024)",
  "molecules": {"B1": {"name": "[TAMRA]dT72 (ssDNA)", "DNA": "TTTTTTTTTTTTTTTTTTTTTTTTTTTTTTTTTTTTTTTTTTTTTTTTTTTTTTTTTTTTTTTTTTTTTTTT"}},
  "key": {"Dmc1 [1]": {"target": "T1, Dmc1 (Schizosaccharomyces pombe, UniProt O42634)", "T1 construct": "purified as described previously; filament on ssDNA", "T1 sequence (O42634 1-332)": "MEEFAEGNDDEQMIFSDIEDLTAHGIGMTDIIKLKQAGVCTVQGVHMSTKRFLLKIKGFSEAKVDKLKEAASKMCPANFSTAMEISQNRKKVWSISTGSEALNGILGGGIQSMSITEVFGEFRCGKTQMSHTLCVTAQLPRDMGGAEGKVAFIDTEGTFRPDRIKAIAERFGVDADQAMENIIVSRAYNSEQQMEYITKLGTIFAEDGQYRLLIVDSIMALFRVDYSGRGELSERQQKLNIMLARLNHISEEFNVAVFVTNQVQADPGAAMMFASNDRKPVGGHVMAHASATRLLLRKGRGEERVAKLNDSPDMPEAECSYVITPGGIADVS", "experiment": "FRET real-time DNA strand pairing and displacement", "assay_type": "biochemical", "settings": "1 mM ATP, 5 mM MgCl2, 25 mM KCl, pH 7.5, 30 °C, 83-mer ssDNA, 40-83 bp dsDNA; compared with ADP"}, "Rad51 [2]": {"target": "T2, Rad51 (Schizosaccharomyces pombe, UniProt P36601)", "T2 construct": "purified as described previously; filament on ssDNA", "T2 sequence (P36601 1-365)": "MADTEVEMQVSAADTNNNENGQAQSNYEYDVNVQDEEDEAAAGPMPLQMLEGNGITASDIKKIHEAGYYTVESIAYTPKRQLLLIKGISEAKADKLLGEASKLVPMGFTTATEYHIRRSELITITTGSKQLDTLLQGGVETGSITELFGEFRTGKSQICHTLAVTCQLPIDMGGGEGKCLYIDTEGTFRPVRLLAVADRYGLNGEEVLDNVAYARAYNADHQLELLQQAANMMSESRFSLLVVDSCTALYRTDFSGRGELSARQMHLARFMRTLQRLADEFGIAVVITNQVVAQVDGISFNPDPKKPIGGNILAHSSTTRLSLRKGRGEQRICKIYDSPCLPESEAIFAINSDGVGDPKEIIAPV", "experiment": "fluorescence anisotropy of Rad51-ssDNA filament", "assay_type": "binding", "settings": "1 mM AMP-PNP, 3 mM MgCl2, 100 mM KCl, pH 7.5, 25 °C, TAMRA-oligo dT; compared with ATP"}, "Dmc1 [3]": {"target": "T1, Dmc1", "experiment": "fluorescence anisotropy of Dmc1-ssDNA filament; FRET strand exchange", "assay_type": "binding", "settings": "1 mM AMP-PNP, 3 mM MgCl2, 100 mM KCl, pH 7.5, 25 °C, TAMRA-oligo dT (anisotropy); compared with ATP"}, "Rad51 [4]": {"target": "T3, Rad51 (Schizosaccharomyces pombe? (fission …, UniProt P36601 1-365))", "T3 sequence": "T2 sequence (P36601 1-365)", "experiment": "fluorescence anisotropy; 1 mM ATP, 3 mM Mg2+; Hill fit; 30 mM HEPES-KOH pH 7.5, 100 mM KCl, 3 mM MgCl2 or CaCl2, 1 mM DTT, 5% glycerol, 1 mM adenine nucleotide, 3 uM (nt) TAMRA-dT72, 25 C", "settings": "protein: recombinant; label: 5' TAMRA; single-stranded"}, "Dmc1 [5]": {"target": "T4, Dmc1 (Schizosaccharomyces pombe? (fission …, UniProt O42634 1-332))", "T4 sequence": "T1 sequence (O42634 1-332)", "experiment": "fluorescence anisotropy; 1 mM ATP, 3 mM Mg2+; Hill fit; 30 mM HEPES-KOH pH 7.5, 100 mM KCl, 3 mM MgCl2 or CaCl2, 1 mM DTT, 5% glycerol, 1 mM adenine nucleotide, 3 uM (nt) TAMRA-dT72, 25 C", "settings": "protein: recombinant; label: 5' TAMRA; single-stranded"}, "Dmc1 [6]": {"target": "T4, Dmc1", "experiment": "fluorescence anisotropy; 1 mM AMP-PNP, Mg2+; Hill fit; 30 mM HEPES-KOH pH 7.5, 100 mM KCl, 3 mM MgCl2 or CaCl2, 1 mM DTT, 5% glycerol, 1 mM adenine nucleotide, 3 uM (nt) TAMRA-dT72, 25 C", "settings": "protein: recombinant; label: 5' TAMRA; single-stranded"}, "Dmc1 [7]": {"target": "T4, Dmc1", "experiment": "fluorescence anisotropy; 3 mM Ca2+ in place of Mg2+, ATP?; Hill fit; 30 mM HEPES-KOH pH 7.5, 100 mM KCl, 3 mM MgCl2 or CaCl2, 1 mM DTT, 5% glycerol, 1 mM adenine nucleotide, 3 uM (nt) TAMRA-dT72, 25 C", "settings": "protein: recombinant; label: 5' TAMRA; single-stranded"}, "Dmc1 [8]": {"target": "T4, Dmc1", "experiment": "fluorescence anisotropy; ssDNA preincubated with Swi5-Sfr1 (0.1 uM or more), ATP?, Mg2+; Hill fit; 30 mM HEPES-KOH pH 7.5, 100 mM KCl, 3 mM MgCl2 or CaCl2, 1 mM DTT, 5% glycerol, 1 mM adenine nucleotide, 3 uM (nt) TAMRA-dT72, 25 C", "settings": "protein: recombinant; label: 5' TAMRA; single-stranded"}, "Dmc1 [9]": {"target": "T4, Dmc1", "experiment": "fluorescence anisotropy; 1 mM ADP, Mg2+; Hill fit; 30 mM HEPES-KOH pH 7.5, 100 mM KCl, 3 mM MgCl2 or CaCl2, 1 mM DTT, 5% glycerol, 1 mM adenine nucleotide, 3 uM (nt) TAMRA-dT72, 25 C", "settings": "protein: recombinant; label: 5' TAMRA; single-stranded"}},
  "data": [
    {"molecule": "Nc1ncnc2c1ncn2[C@@H]1O[C@H](COP(=O)(O)OP(=O)(O)OP(=O)(O)O)[C@@H](O)[C@H]1O", "note": "[ATP]", "values": [
      {"measurement": "FRET real-time DNA strand pairing and displacement", "setting": "Dmc1 [1]", "value": "the ATP-bound form of Dmc1 is sufficient for three-stranded intermediate formation"}
    ]},
    {"molecule": "Nc1ncnc2c1ncn2[C@@H]1O[C@H](COP(=O)(O)OP(=O)(O)NP(=O)(O)O)[C@@H](O)[C@H]1O", "note": "[AMP–PNP]", "values": [
      {"measurement": "fluorescence anisotropy of Rad51-ssDNA filament", "setting": "Rad51 [2]", "value": "AMP–PNP significantly stabilized the Rad51 filament"},
      {"measurement": "fluorescence anisotropy of Dmc1-ssDNA filament; FRET strand exchange", "setting": "Dmc1 [3]", "value": "AMP–PNP strongly stabilizes the Dmc1–ssDNA filament"}
    ]},
    {"molecule": "B1", "values": [
      {"measurement": "Kd", "setting": "Rad51 [4]", "value": 308, "unit": "nM"},
      {"measurement": "Kd", "setting": "Dmc1 [5]", "value": 1220, "unit": "nM"},
      {"measurement": "Kd", "setting": "Dmc1 [6]", "value": 547, "unit": "nM"},
      {"measurement": "Kd", "setting": "Dmc1 [7]", "value": 227, "unit": "nM"},
      {"measurement": "Kd", "setting": "Dmc1 [8]", "value": "~510", "unit": "nM"},
      {"measurement": "Kd", "setting": "Dmc1 [9]", "value": 1970, "unit": "nM"}
    ]}
  ]
}
